Measurements published in the supplement of paper PMC9112550, “Optimization of the antimicrobial peptide Bac7 by deep mutational scanning” (BMC Biology, 2022).

test system: Escherichia coli TOP10; assay: shrunken log2 fold change of peptide-encoding DNA abundance (4.5 h post-induction vs induction); higher = less antimicrobial activity (less host growth inhibition); conditions: time post-induction: 4.5 h; library: site-saturation at positions 5, 18, 19, 20
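Note: peptides expressed intracellularly from a pBAD plasmid library in pooled LB shake-flask culture, induced with 0.3% L-arabinose, DNA abundance read by NGS, three biological replicates, DESeq2 with apeglm shrinkage.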

Sequence | shrunken log2 fold change
RRIRSRPPRLPRPRPRPTSPPRP | 0.742
RRIRSRPPRLPRPRPRPTVEPRP | 0.119
RRIRSRPPRLPRPRPRPTVKPRP | -0.188
RRIRSRPPRLPRPRPRPTVPPRP | 0.0372
RRIRSRPPRLPRPRPRPTWEPRP | 0.187
RRIRSRPPRLPRPRPRPTWPPRP | 0.41
RRIRSRPPRLPRPRPRPTYDPRP | -0.262
RRIRSRPPRLPRPRPRPVCAPRP | 0.386
RRIRSRPPRLPRPRPRPVFIPRP | -0.598
RRIRSRPPRLPRPRPRPVFPPRP | -0.118
RRIRSRPPRLPRPRPRPVGQPRP | 0.236
RRIRSRPPRLPRPRPRPVHGPRP | -0.215
RRIRSRPPRLPRPRPRPVHKPRP | -0.151
RRIRSRPPRLPRPRPRPVHWPRP | 0.138
RRIRSRPPRLPRPRPRPVINPRP | -0.106
RRIRSRPPRLPRPRPRPVIWPRP | 0.0455
RRIRSRPPRLPRPRPRPVKCPRP | -0.0337
RRIRSRPPRLPRPRPRPVKPPRP | 0.132
RRIRSRPPRLPRPRPRPVLQPRP | 0.371
RRIRSRPPRLPRPRPRPVMMPRP | -0.0812
RRIRSRPPRLPRPRPRPVNCPRP | -0.247
RRIRSRPPRLPRPRPRPVNTPRP | -0.691
RRIRSRPPRLPRPRPRPVPHPRP | 0.0775
RRIRSRPPRLPRPRPRPVPTPRP | 0.105
RRIRSRPPRLPRPRPRPVQAPRP | 0.0475

Sequence | shrunken log2 fold change
RRIRSRPPRLPRPRPRPVQTPRP | 0.826
RRIRSRPPRLPRPRPRPVRIPRP | -0.239
RRIRSRPPRLPRPRPRPVSMPRP | 0.0888
RRIRSRPPRLPRPRPRPVTDPRP | 0.102
RRIRSRPPRLPRPRPRPVTSPRP | -0.132
RRIRSRPPRLPRPRPRPVWAPRP | 0.67
RRIRSRPPRLPRPRPRPVWNPRP | -0.372
RRIRSRPPRLPRPRPRPVYQPRP | -1.16
RRIRSRPPRLPRPRPRPWDPPRP | 0.0317
RRIRSRPPRLPRPRPRPWFGPRP | -0.124
RRIRSRPPRLPRPRPRPWFRPRP | 0.212
RRIRSRPPRLPRPRPRPWHGPRP | -0.00232
RRIRSRPPRLPRPRPRPWIGPRP | -0.0735
RRIRSRPPRLPRPRPRPWKHPRP | -0.0883
RRIRSRPPRLPRPRPRPWMSPRP | 0.132
RRIRSRPPRLPRPRPRPWNDPRP | -0.303
RRIRSRPPRLPRPRPRPWNGPRP | -0.0136
RRIRSRPPRLPRPRPRPWNNPRP | -0.627
RRIRSRPPRLPRPRPRPWPSPRP | 0.117
RRIRSRPPRLPRPRPRPWQKPRP | 0.14
RRIRSRPPRLPRPRPRPWRIPRP | -0.0443
RRIRSRPPRLPRPRPRPWRRPRP | 0.0927
RRIRSRPPRLPRPRPRPWTRPRP | 0.0569
RRIRSRPPRLPRPRPRPWVHPRP | -0.221
RRIRSRPPRLPRPRPRPWVPPRP | 0.177

Sequence | shrunken log2 fold change
RRIRSRPPRLPRPRPRPWVRPRP | 0.0976
RRIRSRPPRLPRPRPRPWYLPRP | -0.617
RRIRSRPPRLPRPRPRPWYPPRP | -0.301
RRIRSRPPRLPRPRPRPYCEPRP | -0.352
RRIRSRPPRLPRPRPRPYDFPRP | -0.195
RRIRSRPPRLPRPRPRPYDKPRP | 0.0507
RRIRSRPPRLPRPRPRPYDMPRP | -0.122
RRIRSRPPRLPRPRPRPYDVPRP | 0.0192
RRIRSRPPRLPRPRPRPYFQPRP | -0.951
RRIRSRPPRLPRPRPRPYGLPRP | -0.0943
RRIRSRPPRLPRPRPRPYHCPRP | -0.255
RRIRSRPPRLPRPRPRPYKQPRP | -0.62
RRIRSRPPRLPRPRPRPYNAPRP | -0.254
RRIRSRPPRLPRPRPRPYQMPRP | -0.557
RRIRSRPPRLPRPRPRPYRSPRP | -0.47
RRIRSRPPRLPRPRPRPYSEPRP | -0.561
RRIRSRPPRLPRPRPRPYSHPRP | -0.712
RRIRSRPPRLPRPRPRPYSLPRP | -0.35
RRIRSRPPRLPRPRPRPYSSPRP | -0.271
RRIRSRPPRLPRPRPRPYVAPRP | -0.402
RRIRSRPPRLPRPRPRPYVKPRP | -0.351
RRIRSRPPRLPRPRPRPYVMPRP | -0.653
RRIRSRPPRLPRPRPRPYWTPRP | -0.141
RRIRSRPPRLPRPRPRPYYKPRP | -0.892
RRIRSRPPRLPRPRPRPYYLPRP | -0.7

Sequence | shrunken log2 fold change
RRIRTRPPRLPRPRPRPACFPRP | 0.252
RRIRTRPPRLPRPRPRPACHPRP | 0.049
RRIRTRPPRLPRPRPRPACLPRP | -0.217
RRIRTRPPRLPRPRPRPAEDPRP | 0.17
RRIRTRPPRLPRPRPRPAFGPRP | 0.155
RRIRTRPPRLPRPRPRPAGEPRP | 0.323
RRIRTRPPRLPRPRPRPAHEPRP | 0.197
RRIRTRPPRLPRPRPRPAKNPRP | -0.0492
RRIRTRPPRLPRPRPRPALIPRP | 0.0272
RRIRTRPPRLPRPRPRPAMRPRP | 0.445
RRIRTRPPRLPRPRPRPAMVPRP | -0.208
RRIRTRPPRLPRPRPRPANFPRP | -0.234
RRIRTRPPRLPRPRPRPAPFPRP | 0.0263
RRIRTRPPRLPRPRPRPAPNPRP | 0.0436
RRIRTRPPRLPRPRPRPARNPRP | 0.199
RRIRTRPPRLPRPRPRPARRPRP | 0.204
RRIRTRPPRLPRPRPRPASEPRP | -0.0873
RRIRTRPPRLPRPRPRPASIPRP | -0.13
RRIRTRPPRLPRPRPRPATCPRP | 2.77
RRIRTRPPRLPRPRPRPATEPRP | -0.0814
RRIRTRPPRLPRPRPRPATWPRP | 0.164
RRIRTRPPRLPRPRPRPCCTPRP | -0.0782
RRIRTRPPRLPRPRPRPCDGPRP | 0.134
RRIRTRPPRLPRPRPRPCEKPRP | -0.0336
RRIRTRPPRLPRPRPRPCFAPRP | 0.083

Sequence | shrunken log2 fold change
RRIRTRPPRLPRPRPRPCFHPRP | -0.638
RRIRTRPPRLPRPRPRPCGAPRP | 0.0999
RRIRTRPPRLPRPRPRPCHFPRP | -0.387
RRIRTRPPRLPRPRPRPCIKPRP | -0.476
RRIRTRPPRLPRPRPRPCIRPRP | -0.0289
RRIRTRPPRLPRPRPRPCISPRP | -0.503
RRIRTRPPRLPRPRPRPCIYPRP | -0.264
RRIRTRPPRLPRPRPRPCMIPRP | -0.546
RRIRTRPPRLPRPRPRPCQKPRP | 0.0124
RRIRTRPPRLPRPRPRPCQLPRP | -0.161
RRIRTRPPRLPRPRPRPCRLPRP | 0.0337
RRIRTRPPRLPRPRPRPCRWPRP | -0.00822
RRIRTRPPRLPRPRPRPCSHPRP | 0.13
RRIRTRPPRLPRPRPRPCSRPRP | -0.182
RRIRTRPPRLPRPRPRPCWRPRP | 0.156
RRIRTRPPRLPRPRPRPCWSPRP | 0.499
RRIRTRPPRLPRPRPRPDAKPRP | 0.395
RRIRTRPPRLPRPRPRPDAQPRP | 0.193
RRIRTRPPRLPRPRPRPDAVPRP | 0.171
RRIRTRPPRLPRPRPRPDCTPRP | 0.0818
RRIRTRPPRLPRPRPRPDCYPRP | -0.000691
RRIRTRPPRLPRPRPRPDEKPRP | 0.0325
RRIRTRPPRLPRPRPRPDFVPRP | -0.106
RRIRTRPPRLPRPRPRPDGSPRP | 0.0485
RRIRTRPPRLPRPRPRPDHGPRP | -0.0102

Sequence | shrunken log2 fold change
RRIRTRPPRLPRPRPRPDHNPRP | -0.471
RRIRTRPPRLPRPRPRPDHRPRP | 0.0733
RRIRTRPPRLPRPRPRPDHTPRP | -0.145
RRIRTRPPRLPRPRPRPDIIPRP | -0.232
RRIRTRPPRLPRPRPRPDKCPRP | -0.229
RRIRTRPPRLPRPRPRPDKIPRP | -0.172
RRIRTRPPRLPRPRPRPDKMPRP | -0.392
RRIRTRPPRLPRPRPRPDKQPRP | 0.0419
RRIRTRPPRLPRPRPRPDKYPRP | -0.147
RRIRTRPPRLPRPRPRPDLRPRP | -0.0122
RRIRTRPPRLPRPRPRPDMEPRP | -0.132
RRIRTRPPRLPRPRPRPDNAPRP | -0.223
RRIRTRPPRLPRPRPRPDNEPRP | -0.248
RRIRTRPPRLPRPRPRPDNHPRP | -1.07
RRIRTRPPRLPRPRPRPDNSPRP | -0.0647
RRIRTRPPRLPRPRPRPDPHPRP | -0.00783
RRIRTRPPRLPRPRPRPDPPPRP | 0.517
RRIRTRPPRLPRPRPRPDQPPRP | 0.00486
RRIRTRPPRLPRPRPRPDQWPRP | -0.00805
RRIRTRPPRLPRPRPRPDRQPRP | -0.0344
RRIRTRPPRLPRPRPRPDTIPRP | -0.0386
RRIRTRPPRLPRPRPRPDTLPRP | 0.00154
RRIRTRPPRLPRPRPRPDTNPRP | -0.558
RRIRTRPPRLPRPRPRPDVDPRP | -0.0342
RRIRTRPPRLPRPRPRPDVLPRP | -0.208
